Measurements taken from the supplement of paper PMC6757056.
± gives the standard deviation of the averaged measurements.

B1: library; a variant is named by its letters at N, in order (parent)
chain: GCUGUCACCGGUGUAUUACCCUAGUGGUCGACCGGUCUGAUGAGUCUNNNNNNAGACGAAACAGC

Experiments:
[1] = variants of: B1; assay: FACS-Seq fitted mean relative fluorescence mCherry/BFP without ligand (log10 relative fluorescence); ligand: hypoxanthine (xanthine aptamer); higher = higher reporter protein expression; conditions: HEK293T, ligand present: no
Outline: (§1)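 Fluorescence values are fitted normal means of bin counts along the mCherry/BFP axis. HEK293T libraries lentivirally carrying the ribozyme switch in an mCherry reporter, with an EF1α-BFP marker, were enriched, exposed to ligand or not for 48 h, and sorted into 6 bins. Genomic DNA per bin was PCR-amplified, barcoded and run on MiSeq. Means of log10(mCherry/BFP) were scaled to five spiked-in control ribozymes.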

[2] = variants of: B1; assay: normalized RNA/DNA level with ligand (relative to sTRSVctl = 100) (log10 (% of sTRSVctl)); ligand: hypoxanthine (xanthine aptamer); higher = less ribozyme self-cleavage, higher mRNA level; conditions: ligand concentration (+) RNA-Seq: 5 mM, HEK293T, reporter: mCherry (pCS4076), ligand present: yes
Outline: (§2)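 Ribozyme switch library plasmids linked to reporters were introduced into HEK293T cells at 4 µg per 6-well well, with ligand, if any, added 1 h before. Total RNA was extracted with EDTA 72 h later, reverse-transcribed, amplified, barcoded and sequenced. RNA level was computed from RNA over DNA reads relative to a spiked-in non-cleaving sequence or the top sequences, then scaled and log-transformed. The top set was 25 sequences, values were ×100 and log10, and the cutoff was ≥100 DNA reads.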

[3] = variants of: B1; assay: normalized RNA/DNA level without ligand (relative to sTRSVctl = 100) (log10 (% of sTRSVctl)); ligand: hypoxanthine (xanthine aptamer); higher = less ribozyme self-cleavage, higher mRNA level; conditions: HEK293T, reporter: mCherry (pCS4076), ligand present: no
Outline: as §2

[4] = variants of: B1; assay: FACS-Seq fitted mean relative fluorescence mCherry/BFP with ligand (log10 relative fluorescence); ligand: hypoxanthine (xanthine aptamer); ligand concentration (+) FACS-Seq: 5 mM; higher = higher reporter protein expression; conditions: HEK293T, ligand present: yes
Outline: as §1

Row | Variant | FACS-Seq fitted mean (log10) [1] | normalized RNA/DNA level with ligand (log10) [2] | normalized RNA/DNA level without ligand (log10) [3] | FACS-Seq fitted mean (log10) [4]
1 | AACCAG | 0.356 ± 0.091 | 1.82 ± 0.027 | 1.41 ± 0.049 | 0.678 ± 0.017
2 | CCGGUG | 0.264 ± 0.0078 | 1.87 ± 0.087 | 1.45 ± 0.044 | 0.594 ± 0.0013
3 | AGCGGA | 0.427 ± 0.044 | 1.945 ± 0.0055 | 1.71 ± 0.036 | 0.456 ± 0.021
4 | GUGGUG | 0.0578 ± 0.012 | 1.83 ± 0.047 | 1.33 ± 0.043 | 0.546 ± 0.02
5 | GACGAC | -0.384 ± 0.063 | 1.9292 ± 0.0013 | 1.67 ± 0.017 | -0.465 ± 0.092
6 | GUACGU | 0.418 ± 0.03 | 1.8918 ± 0.0012 | 1.78 ± 0.067 | 0.626 ± 0.09
7 | UGGAGU | 0.221 ± 0.061 | 1.78 ± 0.019 | 1.32 ± 0.051 | 0.602 ± 0.023
8 | CGCUGA | 0.643 ± 0.033 | 1.9529 ± 0.00012 | 1.89 ± 0.03 | 0.635 ± 0.0074
9 | CGCUGC | 0.163 ± 0.06 | 1.98 ± 0.096 | 1.95 ± 0.083 | 0.518 ± 0.079
10 | UGACGG | 0.484 ± 0.018 | 1.9 ± 0.022 | 1.486 ± 0.01 | 0.646 ± 0.032
11 | AAGUGG | 0.227 ± 0.067 | 1.57 ± 0.1 | 1.093 ± 0.0029 | 0.765 ± 0.065
12 | UAUCGC | 0.437 ± 0.11 | 1.947 ± 0.015 | 1.86 ± 0.047 | 0.239 ± 0.064
13 | CGGUAU | 0.0356 ± 0.0062 | 1.79 ± 0.05 | 1.41 ± 0.016 | 0.468 ± 0.05
14 | AUAUUG | 0.2149 ± 0.0019 | 1.87 ± 0.053 | 1.53 ± 0.075 | 0.486 ± 0.011
15 | UAAUAU | 0.353 ± 0.012 | 1.91 ± 0.061 | 1.796 ± 0.005 | 0.558 ± 0.096
16 | UCGUGC | 0.446 ± 0.039 | 1.953 ± 0.016 | 1.78 ± 0.072 | 0.686 ± 0.013
17 | AGUGGC | -0.495 ± 0.045 | 1.98 ± 0.033 | 1.83 ± 0.023 | 0.0818 ± 0.018
18 | AGCCGA | 0.399 ± 0.018 | 1.925 ± 0.0069 | 1.68 ± 0.027 | 0.547 ± 0.036

Row | Variant | FACS-Seq fitted mean (log10) [1] | normalized RNA/DNA level with ligand (log10) [2] | normalized RNA/DNA level without ligand (log10) [3] | FACS-Seq fitted mean (log10) [4]
19 | GACUUG | 0.475 ± 0.072 | 1.84 ± 0.054 | 1.5 ± 0.034 | 0.228 ± 0.36
20 | GGCAAC | -0.242 ± 0.05 | 1.947 ± 0.0067 | 1.86 ± 0.024 | -0.0947 ± 0.011
21 | UGUCGU | 0.313 ± 0.02 | 1.91 ± 0.036 | 1.61 ± 0.041 | 0.591 ± 0.008
22 | UGGGUA | 0.491 ± 0.13 | 1.95 ± 0.031 | 1.85 ± 0.061 | 0.699 ± 0.12
23 | ACUGCG | 0.125 ± 0.0038 | 1.92 ± 0.03 | 1.458 ± 0.013 | 0.557 ± 0.019
24 | GUGCGU | 0.221 ± 0.019 | 1.972 ± 0.018 | 1.71 ± 0.044 | 0.479 ± 0.04
25 | UUUUAU | 0.589 ± 0.097 | 1.96 ± 0.018 | 1.85 ± 0.06 | 0.296 ± 0.011
26 | AGGCUA | 0.509 ± 0.0085 | 1.93 ± 0.031 | 1.811 ± 0.0095 | 0.617 ± 0.057
27 | AAAGAG | -0.112 ± 0.064 | 1.8 ± 0.025 | 1.32 ± 0.042 | 0.451 ± 0.045
28 | UAACUG | 0.142 ± 0.042 | 1.896 ± 0.018 | 1.64 ± 0.017 | 0.31 ± 0.084
29 | AAUUUG | 0.3 ± 0.021 | 1.873 ± 0.012 | 1.57 ± 0.046 | 0.468 ± 0.064
30 | CGCUAG | 0.118 ± 0.0022 | 1.89 ± 0.063 | 1.79 ± 0.051 | 0.183 ± 0.14
31 | CGAAGA | 0.445 ± 0.018 | 1.97 ± 0.061 | 1.72 ± 0.049 | 0.65 ± 0.062
32 | GCCUUG | 0.213 ± 0.0088 | 1.93 ± 0.05 | 1.46 ± 0.016 | 0.64 ± 0.021
33 | AACCGU | 0.798 ± 0.12 | 1.889 ± 0.0024 | 1.75 ± 0.057 | 0.637 ± 0.047
34 | GACCCC | 0.0047 ± 0.072 | 1.94 ± 0.019 | 1.87 ± 0.038 | 0.161 ± 0.06
35 | GACCCG | 0.0296 ± 0.027 | 1.89 ± 0.022 | 1.632 ± 0.016 | 0.292 ± 0.047
